Results from paper PMC10873556, “G-quadruplex DNA structure is a positive regulator of MYC transcription”.

Tests used:
SP1 [1] = target: T1, SP1 (human, UniProt P08047 1-785); experiment: BLI; 100 mM KCl, 12.5 mM MgCl2, 0.01 mM Zn(OAc)2; apparent, most abundant population, 2:1 heterogeneous ligand fit; BLI: 25 mM HEPES pH 7.5, 100 mM KCl, 12.5 mM MgCl2, 20% glycerol, 0.1% Igepal CA-630, 0.01 mM Zn(OAc)2, 1 mM DTT, 3% BSA, temperature not stated; pull-down: oligos annealed in 10 mM Tris-HCl pH 7.4 with (G4) or without (ds) 100 mM KCl; settings: protein: recombinant; intramolecular G4
SP1 [2] = target: T1, SP1; experiment: BLI; 100 nM SP1; negligible binding; BLI: 25 mM HEPES pH 7.5, 100 mM KCl, 12.5 mM MgCl2, 20% glycerol, 0.1% Igepal CA-630, 0.01 mM Zn(OAc)2, 1 mM DTT, 3% BSA, temperature not stated; pull-down: oligos annealed in 10 mM Tris-HCl pH 7.4 with (G4) or without (ds) 100 mM KCl; settings: protein: recombinant

T1 sequence (P08047 whole entry): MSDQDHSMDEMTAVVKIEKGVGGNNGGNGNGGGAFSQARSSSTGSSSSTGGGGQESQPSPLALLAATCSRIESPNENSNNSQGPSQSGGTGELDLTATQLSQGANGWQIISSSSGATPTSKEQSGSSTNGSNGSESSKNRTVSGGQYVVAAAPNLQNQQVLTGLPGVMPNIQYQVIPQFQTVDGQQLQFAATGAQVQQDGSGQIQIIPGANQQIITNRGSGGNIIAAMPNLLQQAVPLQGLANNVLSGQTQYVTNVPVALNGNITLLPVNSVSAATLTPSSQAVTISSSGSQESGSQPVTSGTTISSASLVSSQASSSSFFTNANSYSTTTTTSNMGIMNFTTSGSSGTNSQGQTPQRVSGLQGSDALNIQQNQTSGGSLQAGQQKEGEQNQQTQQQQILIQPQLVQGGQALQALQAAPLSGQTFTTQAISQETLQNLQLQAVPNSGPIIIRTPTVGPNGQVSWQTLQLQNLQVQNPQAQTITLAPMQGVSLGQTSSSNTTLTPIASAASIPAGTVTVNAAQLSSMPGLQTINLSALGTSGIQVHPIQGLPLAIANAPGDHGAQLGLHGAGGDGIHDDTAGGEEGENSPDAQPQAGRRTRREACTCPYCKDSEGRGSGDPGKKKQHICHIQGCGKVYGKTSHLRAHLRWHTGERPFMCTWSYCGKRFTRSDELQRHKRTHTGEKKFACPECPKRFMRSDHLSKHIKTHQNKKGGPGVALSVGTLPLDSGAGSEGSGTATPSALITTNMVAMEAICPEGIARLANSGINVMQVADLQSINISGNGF

Binder | Kd (SP1 [1]) [nM] | binding result (SP1 [2])
TTTTTGGGGAGGGTGGGGAGGGTGGGGAAGG (structured_DNA) [MYC G4 ss] | 5.6 | 
TTTTTTAAGAGCGTTAAGAGCGTGAACAAGG (ssDNA) [MYC MUT ss] |  | no binding
